In patent US20220064312A1 (SHIONOGI, published 2022):
Read-outs that look alike come from different tables or passages of the source. Each block holds one binder with its values, some of them ahead of it.

Experiments:
human CCR8 [1] = molecular target: T1, human CCR8 (human, UniProt P51685 1-355); experiment: cell-based or functional assay
human CCR8 [2] = molecular target: T1, human CCR8; experiment: cell-based or functional assay; remark: listed apart in the source
human CCR8 [3] = molecular target: T1, human CCR8; experiment: cell-based or functional assay; remark: listed apart in the source
human CCR8 [4] = molecular target: T1, human CCR8; experiment: cell-based or functional assay; remark: listed apart in the source
hCCR8 (Y17A) = hCCR8 (Y17A) (human, UniProt P51685 1-355); experiment: flow cytometry, transfected Expi293 cells
Chain of hCCR8 (Y17A) (P51685 whole entry Y17A): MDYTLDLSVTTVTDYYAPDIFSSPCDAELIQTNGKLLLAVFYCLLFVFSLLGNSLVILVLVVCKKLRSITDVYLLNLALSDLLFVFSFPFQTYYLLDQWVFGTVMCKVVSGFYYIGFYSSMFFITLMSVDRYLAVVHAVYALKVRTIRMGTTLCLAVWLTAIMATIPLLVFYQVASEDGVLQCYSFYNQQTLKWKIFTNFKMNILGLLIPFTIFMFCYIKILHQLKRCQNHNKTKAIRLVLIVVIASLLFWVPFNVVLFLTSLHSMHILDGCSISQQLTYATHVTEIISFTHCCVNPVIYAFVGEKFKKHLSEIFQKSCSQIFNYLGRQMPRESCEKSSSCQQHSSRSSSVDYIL

human CCR4 = molecular target: T2, human CCR4 (human, UniProt P51679 1-360); experiment: flow cytometry, transfected Expi293 cells
T2 construct: also called hCCR4
T2 sequence: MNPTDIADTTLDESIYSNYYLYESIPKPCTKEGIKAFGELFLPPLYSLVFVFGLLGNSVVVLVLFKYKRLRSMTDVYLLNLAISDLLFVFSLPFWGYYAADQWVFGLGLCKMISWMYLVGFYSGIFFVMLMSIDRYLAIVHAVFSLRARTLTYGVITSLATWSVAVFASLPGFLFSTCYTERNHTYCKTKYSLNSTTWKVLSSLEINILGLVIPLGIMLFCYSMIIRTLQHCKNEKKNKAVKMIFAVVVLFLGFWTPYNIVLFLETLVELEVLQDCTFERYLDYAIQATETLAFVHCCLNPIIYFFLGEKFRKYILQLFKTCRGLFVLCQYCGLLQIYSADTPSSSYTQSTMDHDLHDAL

mouse CCR8 = molecular target: T3, mouse CCR8 (mouse, UniProt P56484 1-353); experiment: flow cytometry, transfected Expi293 cells
T3 construct: also called mCCR8
T3 sequence: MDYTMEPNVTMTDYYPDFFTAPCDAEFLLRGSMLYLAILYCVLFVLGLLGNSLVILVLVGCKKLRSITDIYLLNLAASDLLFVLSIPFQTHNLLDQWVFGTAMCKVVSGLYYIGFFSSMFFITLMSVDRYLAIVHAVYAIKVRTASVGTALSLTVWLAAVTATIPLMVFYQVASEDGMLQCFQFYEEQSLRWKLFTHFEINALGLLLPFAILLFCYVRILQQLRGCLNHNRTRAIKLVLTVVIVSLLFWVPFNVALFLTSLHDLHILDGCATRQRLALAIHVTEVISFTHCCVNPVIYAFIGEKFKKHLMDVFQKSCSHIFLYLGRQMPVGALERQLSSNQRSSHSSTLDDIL

N-ter hCCR4-hCCR8 = molecular target: T4, N-ter hCCR4-hCCR8 (human); experiment: flow cytometry, transfected Expi293 cells
T4 construct: chimera on Expi293 cells; remaining hCCR8 ranges derived from the stated swapped ranges and the 355-residue length; also called N-terminal region human CCR4-substituted human CCR8
T4 chain: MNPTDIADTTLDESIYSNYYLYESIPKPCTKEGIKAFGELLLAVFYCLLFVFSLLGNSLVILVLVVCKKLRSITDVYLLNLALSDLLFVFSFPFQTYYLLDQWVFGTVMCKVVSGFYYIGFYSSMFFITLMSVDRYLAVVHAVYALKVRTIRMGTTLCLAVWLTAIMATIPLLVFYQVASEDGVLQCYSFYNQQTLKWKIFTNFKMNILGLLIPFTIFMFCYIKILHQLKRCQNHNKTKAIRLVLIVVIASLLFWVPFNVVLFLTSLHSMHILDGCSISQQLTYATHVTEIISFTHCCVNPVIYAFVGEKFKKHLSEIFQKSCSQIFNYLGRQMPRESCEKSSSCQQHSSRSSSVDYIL

loop1 hCCR4-hCCR8 = molecular target: T5, loop1 hCCR4-hCCR8 (human, UniProt P51685 1-355); experiment: flow cytometry, transfected Expi293 cells; Δ = significantly reduced vs hCCR8
T5 construct: chimera on Expi293 cells; hCCR8 ranges derived; also called loop 1-human CCR4-substituted human CCR8

loop2 hCCR4-hCCR8 = molecular target: T6, loop2 hCCR4-hCCR8 (human, UniProt P51685 1-355); experiment: as above
T6 construct: chimera on Expi293 cells; hCCR8 ranges derived; also called loop2-human CCR4-substituted human CCR8

T1 sequence (P51685 whole entry): as the sequence (P51685 whole entry Y17A) above, with A17Y counted along it

IC50 (nM), Ca2+ influx by 200 nM hCCL1 (human CCR8 [1]): 0.16 nM
B1: h10A11 (IGKV3-20/IGHV3-15 T94R) (antibody, V domains shown)
VH: EVQLVESGGALVKPGGSLRLSCAASGFTFSTYALYWVRQAPGKGLEWVGRIRSKSNNYATYYADSVKDRFTISRDDSKNTLYLQMNSLKTEDTAVYYCTRARFYYSDYGYAMDYWGQGTLVTVSS
VL: EIVLTQSPGTLSLSPGERATLSCRSSKSLLHSNGNTYLYWYQQKPGQAPRLLIYRMSNLASGIPDRFSGSGSGTDFTLTISRLEPEDFAVYYCMQHLEYPLTFGQGTKVEIKR

IC50 (nM), Ca2+ influx by 200 nM hCCL1 (human CCR8 [1]): 0.3 nM
B2: h10A11 (IGKV2-40/IGHV3-15 T94R) (antibody, V domains shown)
VH: EVQLVESGGALVKPGGSLRLSCAASGFTFSTYALYWVRQAPGKGLEWVGRIRSKSNNYATYYADSVKDRFTISRDDSKNTLYLQMNSLKTEDTAVYYCTRARFYYSDYGYAMDYWGQGTLVTVSS
VL: DIVMTQTPLSLPVTPGEPASISCRSSKSLLHSNGNTYLYWYLQKPGQSPQLLIYRMSNLASGVPDRFSGSGSGTDFTLKISRVEAEDVGVYYCMQHLEYPLTFGQGTKLEIKR

IC50 (nM), Ca2+ influx by 200 nM hCCL1 (human CCR8 [1]): 0.2 nM
B3: h10A11 (IGKV1-39/IGHV3-15 T94R) (antibody, V domains shown)
VH: EVQLVESGGALVKPGGSLRLSCAASGFTFSTYALYWVRQAPGKGLEWVGRIRSKSNNYATYYADSVKDRFTISRDDSKNTLYLQMNSLKTEDTAVYYCTRARFYYSDYGYAMDYWGQGTLVTVSS
VL: DIQMTQSPSSLSASVGDRVTITCRSSKSLLHSNGNTYLYWYQQKPGKAPKLLIYRMSNLASGVPSRFSGSGSGTDFTLTISSLQPEDFATYYCMQHLEYPLTFGQGTKLEIKR

IC50 (nM), Ca2+ influx by 200 nM hCCL1 (human CCR8 [2]): 0.19 nM
B4: h10A11 IGKV3-20 N53Q, G29R/IGHV3-15 T94R (antibody, V domains shown)
VH: EVQLVESGGALVKPGGSLRLSCAASGFTFSTYALYWVRQAPGKGLEWVGRIRSKSNNYATYYADSVKDRFTISRDDSKNTLYLQMNSLKTEDTAVYYCTRARFYYSDYGYAMDYWGQGTLVTVSS
VL: EIVLTQSPGTLSLSPGERATLSCRSSKSLLHSNRNTYLYWYQQKPGQAPRLLIYRMSQLASGIPDRFSGSGSGTDFTLTISRLEPEDFAVYYCMQHLEYPLTFGQGTKVEIKR

IC50 (nM), Ca2+ influx by 200 nM hCCL1 (human CCR8 [1]): 0.7 nM
B5: h10A11 (IGKV1-16/IGHV3-15 T94R) (antibody, V domains shown)
VH: EVQLVESGGALVKPGGSLRLSCAASGFTFSTYALYWVRQAPGKGLEWVGRIRSKSNNYATYYADSVKDRFTISRDDSKNTLYLQMNSLKTEDTAVYYCTRARFYYSDYGYAMDYWGQGTLVTVSS
VL: DIQMTQSPSSLSASVGDRVTITCRSSKSLLHSNGNTYLYWFQQKPGKAPKSLIYRMSNLASGVPSRFSGSGSGTDFTLTISSLQPEDFATYYCMQHLEYPLTFGQGTKLEIKR

IC50 (nM), Ca2+ influx by 200 nM hCCL1 (human CCR8 [2]): 0.12 nM
B6: h10A11 IGKV4-1 N53Q, G29R/IGHV3-15 T94R (antibody, V domains shown)
VH: EVQLVESGGALVKPGGSLRLSCAASGFTFSTYALYWVRQAPGKGLEWVGRIRSKSNNYATYYADSVKDRFTISRDDSKNTLYLQMNSLKTEDTAVYYCTRARFYYSDYGYAMDYWGQGTLVTVSS
VL: DIVMTQSPDSLAVSLGERATINCRSSKSLLHSNRNTYLYWYQQKPGQPPKLLIYRMSQLASGVPDRFSGSGSGTDFTLTISSLQAEDVAVYYCMQHLEYPLTFGQGTKLEIKR

IC50 (nM), Ca2+ influx by 200 nM hCCL1 (human CCR8 [1]): 0.21 nM
B7: h10A11 (IGKV2-40/IGHV3-73) (antibody, V domains shown)
VH: EVQLVESGGGLVQPGGSLKLSCAASGFAFNTYALYWVRQASGKGLEWVGRIRSKSNNYATYYADSVKDRFTISRDDSKNTAYLQMNSLKTEDTAVYYCTRARFYYSDYGYAMDYWGQGTLVTVSS
VL: DIVMTQTPLSLPVTPGEPASISCRSSKSLLHSNGNTYLYWYLQKPGQSPQLLIYRMSNLASGVPDRFSGSGSGTDFTLKISRVEAEDVGVYYCMQHLEYPLTFGQGTKLEIKR

IC50 (nM), Ca2+ influx by 200 nM hCCL1 (human CCR8 [1]): 0.16 nM
B8: h10A11 (IGKV1-39/IGHV3-73) (antibody, V domains shown)
VH: EVQLVESGGGLVQPGGSLKLSCAASGFAFNTYALYWVRQASGKGLEWVGRIRSKSNNYATYYADSVKDRFTISRDDSKNTAYLQMNSLKTEDTAVYYCTRARFYYSDYGYAMDYWGQGTLVTVSS
VL: DIQMTQSPSSLSASVGDRVTITCRSSKSLLHSNGNTYLYWYQQKPGKAPKLLIYRMSNLASGVPSRFSGSGSGTDFTLTISSLQPEDFATYYCMQHLEYPLTFGQGTKLEIKR

IC50 (nM), Ca2+ influx by 200 nM hCCL1 (human CCR8 [1]): 0.2 nM
B9: h10A11 (IGKV2-28/IGHV3-73) (antibody, V domains shown)
VH: EVQLVESGGGLVQPGGSLKLSCAASGFAFNTYALYWVRQASGKGLEWVGRIRSKSNNYATYYADSVKDRFTISRDDSKNTAYLQMNSLKTEDTAVYYCTRARFYYSDYGYAMDYWGQGTLVTVSS
VL: DIVMTQSPLSLPVTPGEPASISCRSSKSLLHSNGNTYLYWYLQKPGQSPQLLIYRMSNLASGVPDRFSGSGSGTDFTLKISRVEAEDVGVYYCMQHLEYPLTFGQGTKVEIKR

IC50 (nM), Ca2+ influx by 200 nM hCCL1 (human CCR8 [2]): 0.29 nM
B10: h10A11 IGKV3-20 N53Q, N28K/IGHV3-15 T94R (antibody, V domains shown)
VH: EVQLVESGGALVKPGGSLRLSCAASGFTFSTYALYWVRQAPGKGLEWVGRIRSKSNNYATYYADSVKDRFTISRDDSKNTLYLQMNSLKTEDTAVYYCTRARFYYSDYGYAMDYWGQGTLVTVSS
VL: EIVLTQSPGTLSLSPGERATLSCRSSKSLLHSKGNTYLYWYQQKPGQAPRLLIYRMSQLASGIPDRFSGSGSGTDFTLTISRLEPEDFAVYYCMQHLEYPLTFGQGTKVEIKR

IC50 (nM), Ca2+ influx by 200 nM hCCL1 (human CCR8 [2]): 0.21 nM
B11: h10A11 IGKV3-20 N53Q, G29L/IGHV3-15 T94R (antibody, V domains shown)
VH: EVQLVESGGALVKPGGSLRLSCAASGFTFSTYALYWVRQAPGKGLEWVGRIRSKSNNYATYYADSVKDRFTISRDDSKNTLYLQMNSLKTEDTAVYYCTRARFYYSDYGYAMDYWGQGTLVTVSS
VL: EIVLTQSPGTLSLSPGERATLSCRSSKSLLHSNLNTYLYWYQQKPGQAPRLLIYRMSQLASGIPDRFSGSGSGTDFTLTISRLEPEDFAVYYCMQHLEYPLTFGQGTKVEIKR

IC50 (nM), Ca2+ influx by 200 nM hCCL1 (human CCR8 [3]): 0.23 nM
B12: 2-7B (antibody, V domains shown)
VH: EVQLVESDGGLVQPGRSLKLSCAASGFTFSDYYMAWVRQAPTKGLEWVATITYDVYSTYYRDSVKGRFTISRDNAKSTLYLQMDSLRSEDTATYYCARHGGDGYNSGNWFAYWGQGTLVTVSS
VL: DIVLTQSPALAVSLGQRATISCRASQSVSISRYNIMHWYQQKPGQQPKLLIYRASNLASGIPARFSGSGSGTDFTLTINPVQADDIATYYCQQSRESPPTFGGGTKLELKR

Neutralizing Activity IC50 (nM), Ca2+ influx by 100 nM hCCL1 (human CCR8 [4]): 0.09 nM | binding result (hCCR8 (Y17A)): no binding | binding result (human CCR4): no binding | binding result (mouse CCR8): no binding | binding result (N-ter hCCR4-hCCR8): no binding | binding result (loop1 hCCR4-hCCR8): binds | binding result (loop2 hCCR4-hCCR8): binds
B13: 27G1 (antibody, V domains shown)
VH: EVQLVESGGRLVQPKGSLKLSCAASGFAFNTYAMYWIRQAPGKGLEWVARIRSKSNNYATYYADSVKDRFTISRDDSQSMLYLQMNNLKTEDTAMYYCVRARFYYSDYGYAMDYWGQGTSVTVSS
VL: DIVMTQAAPSVPVTPGESVSISCRSSKSLLHSNGNTYLYWFLQRPGQSPQLLIYRMSNLASGVPDRFSGSGSGTAFTLRISRVEAEDVGVYYCMQHLEYPLTFGAGTKLELKR
notes: mouse hybridoma antibody

Neutralizing Activity IC50 (nM), Ca2+ influx by 100 nM hCCL1 (human CCR8 [4]): 0.08 nM | IC50 (nM), Ca2+ influx by 200 nM hCCL1 (human CCR8 [3]): 0.23 nM | IC50 (nM), Ca2+ influx by 200 nM hCCL1 (human CCR8 [1]): 0.23 nM | binding result (hCCR8 (Y17A)): no binding | binding result (human CCR4): no binding | binding result (mouse CCR8): no binding | binding result (N-ter hCCR4-hCCR8): no binding | binding result (loop1 hCCR4-hCCR8): binds | binding result (loop2 hCCR4-hCCR8): binds
B14: 10A11 (antibody, V domains shown)
VH: EVQLVESGGRLVQPKGSLKLSCAASGFAFNTYALYWIRQAPGKGLEWVARIRSKSNNYATYYADSVKDRFTISRDDSQSMLYLQMNNLKTEDTAMYYCVRARFYYSDYGYAMDYWGQGTSVTVSS
VL: DIVMTQAAPSVPVTPGESVSISCRSSKSLLHSNGNTYLYWFLQRPGQSPQLLIYRMSNLASGVPDRFSGSGSGTAFTLRISRVEAEDVGVYYCMQHLEYPLTFGAGTKLELKR
notes: mouse hybridoma antibody; also called m10A11; clone No. 10A11
